This assay concerns the target 大熊猫TSHβ亚基特异序列多肽片段TSHβ-2 (大熊猫 (giant panda)). The assay can be described thus: indirect ELISA, peptide TSHβ-2 coated at 2 μg/mL, HRP goat anti-mouse, OD450. For orientation: ELISA stands for enzyme-linked immunosorbent assay.

Sequence of 大熊猫TSHβ亚基特异序列多肽片段TSHβ-2 (大熊猫 (giant panda)) (peptide, as listed by the source): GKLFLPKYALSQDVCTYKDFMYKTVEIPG

B1: 大熊猫TSHβ单克隆抗体 (杂交瘤细胞株TSHB-B, CCTCC NO: C202283) (antibody, IgG1, V domains shown)
VH: EVKLVESGGGLVKPGGSLKLSCAASGFSFSRYAMSWVRHAPENRLEWVAAISRGGNLYYRDSVKGRFTISRDDARNILYLQMSSLRSEDTAMYYCTRDDYDEDWYFDVWGAGTTVTVSS
VL: DVLMTQTPLSLPVSLGEQASISCRSSQIIVHSNGNTYLEWYLQKPGQSPKLLIYKVSNRFSGVPDRFSGSGSGTDFTLKISRVEAEDLGVYYCFHGSHIPPTFGGGTKLEIK
B1 showed a 效价 (ELISA titer) (fold dilution) of over 1e+06.

The values are drawn from CN116819103A.
